Test results as given in article PMC5658772 (2017).

Target: T1, ZIKV envelope protein domain III-hFc fusion protein (ZIKV-DIII-hFc) (Zika virus strain MR766, UniProt Q32ZE1)
T1 chain: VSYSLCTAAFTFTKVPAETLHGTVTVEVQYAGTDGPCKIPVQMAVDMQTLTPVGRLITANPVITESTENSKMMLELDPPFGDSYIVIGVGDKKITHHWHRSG
Assay: BLI

B1: m302 IgG1 (antibody, V domains shown)
VH: EVQLVQSGGGLVKPGRSLRLSCAASGFTFSSYAMHWVRQAPGKGLEWVAVISYDGSNKYYADSVKGRFTISRDNSKNTLYLQMNSLRAEDTAVYYCAREIGDYYYYGMDVWGQGTLVTVSS
VL: EIVMTQSPATLSLSPGERATLSCRASQSVSSYLAWYQQKPGQAPRLLIYDASNRATGIPARFSGSGSGTDFTLTISSLQPEDFATYYCQQSYSTPLTFGGGTKVEIK
Work on B1 yielded a koff of 0.00177 s⁻¹.
